Paper PMC5932034 (2018)

Columns and labels:
[1] = target: FliT−FliD chaperone–substrate complex (non-fused) (Salmonella enterica serovar Typhimurium …, UniProt P0A1N2 1-122; P16328 1-467); experiment: ITC
[2] = target: fused FliT−FliD^C construct (FliD^C fused to the N terminus of FliT) (Salmonella enterica serovar Typhimurium …, UniProt P16328); experiment: ITC

Chain of FliT−FliD chaperone–substrate complex (non-fused) (P0A1N2 whole entry, chain 1 of 2, the tested form may be a part): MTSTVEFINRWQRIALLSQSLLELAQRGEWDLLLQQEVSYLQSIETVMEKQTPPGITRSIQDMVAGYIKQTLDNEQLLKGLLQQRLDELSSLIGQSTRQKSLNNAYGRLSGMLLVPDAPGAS
Chain of FliT−FliD chaperone–substrate complex (non-fused) (P16328 whole entry, chain 2 of 2, the tested form may be a part): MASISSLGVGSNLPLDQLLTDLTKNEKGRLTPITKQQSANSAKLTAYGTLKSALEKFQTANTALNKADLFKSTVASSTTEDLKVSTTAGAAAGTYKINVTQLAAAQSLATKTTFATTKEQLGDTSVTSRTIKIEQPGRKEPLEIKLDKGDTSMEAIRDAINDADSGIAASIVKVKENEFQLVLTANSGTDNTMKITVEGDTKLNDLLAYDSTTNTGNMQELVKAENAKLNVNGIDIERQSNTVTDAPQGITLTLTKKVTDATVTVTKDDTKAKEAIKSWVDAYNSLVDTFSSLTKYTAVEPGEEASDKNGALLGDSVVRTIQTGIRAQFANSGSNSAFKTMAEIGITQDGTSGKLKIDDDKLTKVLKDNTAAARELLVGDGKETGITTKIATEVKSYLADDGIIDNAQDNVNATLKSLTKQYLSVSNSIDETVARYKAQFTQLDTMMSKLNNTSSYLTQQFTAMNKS

B1: cytoplasmic domain of Salmonella enterica serovar Typhimurium FlhA (FlhA^C) (domain or fragment)
chain: SLGMEVGYRLIPMVDFQQDGELLGRIRSIRKKFAQDMGFLPPVVHIRDNMDLQPARYRILMKGVEIGSGDAYPGRWLAINPGTAAGTLPGEKTVDPAFGLDAIWIESALKEQAQIQGFTVVEASTVVATHLNHLIGQFSAELFGRQEAQQLLDRVSQEMPKLTEDLVPGVVTLTTLHKVLQNLLAEKVPIRDMRTILETLAEHAPLQSDPHELTAVVRVALGRAITQQWFPGNEEVQVIGLDTALERLLLQALQGGGGLEPGLADRLLAQTQEALSRQEMLGAPPVLLVNHALRPLLSRFLRRSLPQLVVLSNLELSDNRHIRMTATIGGK
[1]
  Kd: ~25 µM
[2]
  Kd: ~29 µM
